Reference: patent publication US20160264669A1 (ARGEN X N V, published 2016)
Changes are numbered by the printed parent chain. Names and notes keep the numbering of the source. Values belong to the binder of their own block, whether it stands above or below them.

Assays:
[1] = target: T1, biotinylated hCD16a (Sino Biological Inc., 10389-H27H1-B) (human, UniProt P08637 17-208, biotinylated (site not stated)); assay: ELISA; biotinylated hCD16a captured on neutravidin plate, anti-human Fc-HRP detection
T1 construct: Purchased reagent; also called human CD16a
Description: (§1) Specifically, a Maxisorp plate was coated with 100 ng/well of Neutravidin Biotin-binding Protein (ThermoScientific, 31000) and incubated overnight at 4° C. The following day, the plate was blocked with PBS+1% casein for 2 hours at room temperature. […] Binding to hCD16a was detected using an HRP-conjugated polyclonal goat anti-human Fc antibody (Jackson ImmunoResearch, 109-035-008) (incubation 1 hour at RT, dilution 1/50,000 in PBS+0.1% casein), followed by addition of 100 μl room temperature-equilibrated TMB (SDT-reagents #s TMB). Plates were incubated for 10 minutes prior to addition of 100 μl 0.5N H₂SO₄ and OD450 nm measurement. EC50 values were determined using GraphPad Prism software.

[2] = target: T1, biotinylated hCD16a (Sino Biological …); assay: ELISA; biotinylated hCD16a captured on neutravidin plate; reference is fucosylated Fc-Abdeg
Description: as §1

[3] = target: T2, murine CD16-2 (Sino Biological Inc., 50036-M27H-B) (murine, UniProt A0A0B4J1G0 21-203, Probably biotinylated on the vendor's tag (catalogue suffix -B); not carried in the letters); assay: ELISA on murine CD16-2, procedure similar to the hCD16a ELISA
T2 construct: Purchased reagent; Biotinylation is only implied by 'a similar experimental procedure as described above'; also called mCD16-2
T2 sequence: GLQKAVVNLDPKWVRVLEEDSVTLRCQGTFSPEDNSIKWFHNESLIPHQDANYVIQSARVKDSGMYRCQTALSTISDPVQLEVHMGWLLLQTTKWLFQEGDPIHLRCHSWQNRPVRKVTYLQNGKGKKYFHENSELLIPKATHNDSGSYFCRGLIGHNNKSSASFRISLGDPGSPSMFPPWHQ
Description: as §1
Using a similar experimental procedure as described above, the binding affinity for murine CD16-2 (Sino Biological Inc., 50036-M27H-B) was determined.

T1 sequence (P08637 17-208 limits assumed): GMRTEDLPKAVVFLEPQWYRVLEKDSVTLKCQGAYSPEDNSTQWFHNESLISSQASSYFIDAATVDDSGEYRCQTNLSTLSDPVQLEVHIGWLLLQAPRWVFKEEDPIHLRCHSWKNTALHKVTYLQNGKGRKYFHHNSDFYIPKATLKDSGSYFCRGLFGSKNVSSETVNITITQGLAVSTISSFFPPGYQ

EC50 [1]: 13 nM
fold increase in affinity vs Fc-Abdeg [2]: > 30 fold
EC50 [3]: 11 nM
B1: Fc-Abdeg-POT (other)
chain: DKTHTCPPCPAPELLGGPSVFLFPPKPKDTLYITREPEVTCVVVDVSHEDPEVKFNWYVDGVEVHNAKTKPREEQYNSTYRVVSVLTVLHQDWLNGKEYKCKVSNKALPAPIEKTISKAKGQPREPQVYTLPPSRDELTKNQVSLTCLVKGFYPSDIAVEWESNGQPENNYKTTPPVLDSDGSFFLYSKLTVDKSRWQQGNVFSCSVMHEALKFHYTQKSLSLSPGK
modifications: afucosylated (defucosylated) N-linked glycan
notes: also called afucosylated form of Fc-Abdeg; afucosylated variant

EC50 [3]: > 100 nM
B2: Fc-Abdeg (other)
chain: B1 chain
notes: Isolated variant human IgG Fc region with no variable region; Produced in CHO cells, fucosylated; also called wild-type Fc-Abdeg; fucosylated Fc-Abdeg

EC50 [1]: 6 nM
B3: Fc-Abdeg-S239D/I332E (other)
chain: B1 chain with S19D, I112E
notes: also called Fc-Abdeg-S239D/I332E variant
